According to doi:10.1101/2022.10.14.512271:

Columns and labels:
[1] = target: lac repressor M42I/K84L (IhL) (UniProt P03023 1-360, M42I;K84L); assay: fluorescence anisotropy
lac repressor M42I (Ihk) = lac repressor M42I (Ihk) (UniProt P03023 1-360, M42I); assay: fluorescence anisotropy
Chain of lac repressor M42I (Ihk) (P03023 whole entry M42I): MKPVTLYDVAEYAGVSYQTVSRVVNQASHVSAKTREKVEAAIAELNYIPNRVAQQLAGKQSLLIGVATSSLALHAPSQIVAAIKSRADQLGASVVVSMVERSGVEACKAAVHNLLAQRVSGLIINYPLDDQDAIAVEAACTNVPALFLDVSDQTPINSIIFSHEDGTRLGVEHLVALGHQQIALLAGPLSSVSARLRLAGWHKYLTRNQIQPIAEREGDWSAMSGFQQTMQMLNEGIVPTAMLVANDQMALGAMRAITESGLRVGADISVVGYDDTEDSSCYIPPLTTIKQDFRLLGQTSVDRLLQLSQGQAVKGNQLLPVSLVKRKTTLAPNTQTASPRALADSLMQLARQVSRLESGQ

Chain of lac repressor M42I/K84L (IhL) (P03023 whole entry M42I/K84L): as the sequence (P03023 whole entry M42I) above, with K84L counted along it

B1: FI-Oid (18-mer operator) (dsDNA)
DNA 1: ATTGTGAGCGCTCACAAT
DNA 2: ATTGTGAGCGCTCACAAT
B1: binds [1]; binds (lac repressor M42I (Ihk)).
